Results from patent publication US20090054344A1.
One block for each substance: values may come before it.

Tests used:
[1] = molecular target: human αvβ3 protein (CHEMICON), soluble (human) (UniProt P06756); experiment: cell-based or functional assay
[2] = molecular target: integrin β1 subunit on HUVEC cells (human) (UniProt P05556); experiment: HUVEC attachment to plates coated with E. coli-expressed Tumstatin-44-131 (10 µg/ml); 10 µg/ml antibody; the blocked ligand is Tumstatin-44-131
[3] = molecular target: integrin β1 subunit on HUVEC cells (human) (UniProt P05556); experiment: HUVEC binding to type IV collagen-coated plates; 10 µg/ml antibody, against control IgG; the blocked ligand is type IV collagen
[4] = molecular target: integrin β1 subunit on HUVEC cells (human) (UniProt P05556); experiment: HUVEC adhesion to collagen Type IV-coated wells (10 µg/ml); 10 µg/ml antibody; the blocked ligand is type IV collagen
[5] = molecular target: integrin β1 subunit on HUVEC cells (human) (UniProt P05556); experiment: HUVEC attachment to Tumstatin-coated plates (10 µg/ml); 10 µg/ml antibody, against control IgG; the blocked ligand is Tumstatin
[6] = molecular target: integrin β1 subunit on HUVEC cells (human) (UniProt P05556); experiment: HUVEC adhesion to Arresten-coated wells (10 µg/ml); cells pre-mixed with 10 µg/ml antibody; the blocked ligand is Arresten
[7] = molecular target: αvβ3 integrin on HUVEC cells (human) (UniProt P06756); experiment: HUVEC attachment to plates coated with E. coli-expressed Tumstatin-44-131 (10 µg/ml); 10 µg/ml antibody; the blocked ligand is Tumstatin-44-131
[8] = molecular target: αvβ3 integrin on HUVEC cells (human) (UniProt P06756); experiment: HUVEC attachment to Tumstatin-coated plates; αvβ3 antibody used TOGETHER with β1 antibody; the blocked ligand is Tumstatin
[9] = molecular target: αvβ3 integrin on C-PAE cells (bovine) (UniProt P80746); experiment: C-PAE attachment to Tum-1-coated plates; the blocked ligand is Tum-1
[10] = molecular target: αvβ3 integrin on C-PAE cells (bovine) (UniProt P80746); experiment: C-PAE attachment to Tum-4-coated plates; the blocked ligand is Tum-4
[11] = molecular target: αvβ3 integrin on HUVEC cells (human) (UniProt P06756); experiment: HUVEC binding to vitronectin-coated plates; 10 µg/ml antibody; the blocked ligand is vitronectin
[12] = molecular target: αvβ3 integrin on HUVEC cells (human) (UniProt P06756); experiment: HUVEC adhesion to collagen Type IV-coated wells (10 µg/ml); 10 µg/ml antibody; the blocked ligand is type IV collagen
[13] = molecular target: αvβ3 integrin on C-PAE cells (bovine) (UniProt P80746); experiment: C-PAE attachment to Tum-2-coated plates; the blocked ligand is Tum-2
[14] = molecular target: αvβ3 integrin on HUVEC cells (human) (UniProt P06756); experiment: HUVEC attachment to Tumstatin-coated plates (10 µg/ml); 10 µg/ml antibody, against control IgG; the blocked ligand is Tumstatin

Sequence of integrin β1 subunit on HUVEC cells (human) (P05556 21-798): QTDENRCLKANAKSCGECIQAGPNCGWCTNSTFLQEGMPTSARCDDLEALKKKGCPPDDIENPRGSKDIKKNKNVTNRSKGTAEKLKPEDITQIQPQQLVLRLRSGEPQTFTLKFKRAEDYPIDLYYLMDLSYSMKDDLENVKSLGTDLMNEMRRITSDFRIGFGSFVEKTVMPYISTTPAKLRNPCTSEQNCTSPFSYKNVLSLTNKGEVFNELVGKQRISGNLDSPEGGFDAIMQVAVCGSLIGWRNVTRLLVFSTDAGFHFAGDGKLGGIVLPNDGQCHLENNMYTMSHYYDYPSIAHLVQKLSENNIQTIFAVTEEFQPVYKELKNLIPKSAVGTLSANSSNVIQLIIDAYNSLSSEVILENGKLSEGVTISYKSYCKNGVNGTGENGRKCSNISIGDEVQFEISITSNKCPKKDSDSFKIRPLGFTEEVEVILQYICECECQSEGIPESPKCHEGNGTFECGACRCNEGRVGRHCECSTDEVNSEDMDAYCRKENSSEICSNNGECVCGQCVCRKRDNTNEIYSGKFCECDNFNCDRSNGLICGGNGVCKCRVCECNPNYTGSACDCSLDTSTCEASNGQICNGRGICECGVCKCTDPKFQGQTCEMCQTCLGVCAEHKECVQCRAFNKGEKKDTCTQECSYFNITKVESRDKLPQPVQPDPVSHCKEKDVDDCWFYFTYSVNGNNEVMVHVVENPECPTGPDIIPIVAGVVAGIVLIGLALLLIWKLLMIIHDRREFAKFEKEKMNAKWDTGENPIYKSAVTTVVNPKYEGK
Sequence of αvβ3 integrin on HUVEC cells (human) (P06756 31-1048, chain 1 of 2): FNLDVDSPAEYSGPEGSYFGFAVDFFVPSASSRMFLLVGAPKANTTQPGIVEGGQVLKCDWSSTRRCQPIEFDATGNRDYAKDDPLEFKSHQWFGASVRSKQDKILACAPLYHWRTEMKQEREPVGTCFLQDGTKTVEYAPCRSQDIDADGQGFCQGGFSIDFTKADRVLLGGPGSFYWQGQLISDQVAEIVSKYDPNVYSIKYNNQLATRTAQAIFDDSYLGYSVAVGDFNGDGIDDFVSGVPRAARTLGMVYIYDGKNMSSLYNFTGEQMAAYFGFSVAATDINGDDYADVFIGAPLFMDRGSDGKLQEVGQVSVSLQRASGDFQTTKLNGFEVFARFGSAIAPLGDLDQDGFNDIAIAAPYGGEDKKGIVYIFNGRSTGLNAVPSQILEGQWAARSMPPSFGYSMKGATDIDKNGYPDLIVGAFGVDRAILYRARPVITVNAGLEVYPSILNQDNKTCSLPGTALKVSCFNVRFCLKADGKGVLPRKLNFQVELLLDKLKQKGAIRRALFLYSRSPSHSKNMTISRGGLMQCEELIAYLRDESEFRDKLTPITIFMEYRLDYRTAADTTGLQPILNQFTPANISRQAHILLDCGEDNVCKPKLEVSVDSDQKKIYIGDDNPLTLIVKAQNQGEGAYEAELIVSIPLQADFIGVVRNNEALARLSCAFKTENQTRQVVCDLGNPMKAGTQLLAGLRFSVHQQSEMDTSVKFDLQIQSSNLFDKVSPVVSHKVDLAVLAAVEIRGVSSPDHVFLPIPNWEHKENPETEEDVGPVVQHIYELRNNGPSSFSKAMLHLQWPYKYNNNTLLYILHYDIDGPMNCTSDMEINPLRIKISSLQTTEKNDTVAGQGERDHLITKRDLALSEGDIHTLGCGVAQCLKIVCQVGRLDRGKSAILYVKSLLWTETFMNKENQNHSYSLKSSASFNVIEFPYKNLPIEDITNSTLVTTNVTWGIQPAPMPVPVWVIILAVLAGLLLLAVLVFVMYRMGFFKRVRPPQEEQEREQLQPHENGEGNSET
Sequence of αvβ3 integrin on HUVEC cells (human) (P05106 27-788, chain 2 of 2, further chain): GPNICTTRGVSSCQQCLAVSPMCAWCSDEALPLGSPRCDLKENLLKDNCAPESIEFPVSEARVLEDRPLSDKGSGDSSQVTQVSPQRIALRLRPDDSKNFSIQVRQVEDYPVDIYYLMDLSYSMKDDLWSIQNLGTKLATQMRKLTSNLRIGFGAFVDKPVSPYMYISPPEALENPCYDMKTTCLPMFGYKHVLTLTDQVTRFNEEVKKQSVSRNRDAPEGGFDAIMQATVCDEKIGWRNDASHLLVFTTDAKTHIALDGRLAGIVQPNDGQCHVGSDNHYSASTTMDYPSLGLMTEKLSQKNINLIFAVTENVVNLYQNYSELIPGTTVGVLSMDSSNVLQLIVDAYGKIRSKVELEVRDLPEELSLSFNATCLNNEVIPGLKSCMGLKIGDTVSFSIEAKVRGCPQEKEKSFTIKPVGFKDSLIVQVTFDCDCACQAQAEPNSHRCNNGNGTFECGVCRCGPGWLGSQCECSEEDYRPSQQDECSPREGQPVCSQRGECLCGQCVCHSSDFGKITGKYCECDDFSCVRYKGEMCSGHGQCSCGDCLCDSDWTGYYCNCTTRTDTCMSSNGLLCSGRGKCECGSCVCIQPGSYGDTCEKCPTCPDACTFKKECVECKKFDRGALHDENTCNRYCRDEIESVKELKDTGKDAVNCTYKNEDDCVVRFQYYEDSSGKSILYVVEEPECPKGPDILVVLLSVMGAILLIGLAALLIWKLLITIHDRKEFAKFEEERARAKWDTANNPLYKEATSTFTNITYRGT
Sequence of αvβ3 integrin on C-PAE cells (bovine) (P80746 31-1048): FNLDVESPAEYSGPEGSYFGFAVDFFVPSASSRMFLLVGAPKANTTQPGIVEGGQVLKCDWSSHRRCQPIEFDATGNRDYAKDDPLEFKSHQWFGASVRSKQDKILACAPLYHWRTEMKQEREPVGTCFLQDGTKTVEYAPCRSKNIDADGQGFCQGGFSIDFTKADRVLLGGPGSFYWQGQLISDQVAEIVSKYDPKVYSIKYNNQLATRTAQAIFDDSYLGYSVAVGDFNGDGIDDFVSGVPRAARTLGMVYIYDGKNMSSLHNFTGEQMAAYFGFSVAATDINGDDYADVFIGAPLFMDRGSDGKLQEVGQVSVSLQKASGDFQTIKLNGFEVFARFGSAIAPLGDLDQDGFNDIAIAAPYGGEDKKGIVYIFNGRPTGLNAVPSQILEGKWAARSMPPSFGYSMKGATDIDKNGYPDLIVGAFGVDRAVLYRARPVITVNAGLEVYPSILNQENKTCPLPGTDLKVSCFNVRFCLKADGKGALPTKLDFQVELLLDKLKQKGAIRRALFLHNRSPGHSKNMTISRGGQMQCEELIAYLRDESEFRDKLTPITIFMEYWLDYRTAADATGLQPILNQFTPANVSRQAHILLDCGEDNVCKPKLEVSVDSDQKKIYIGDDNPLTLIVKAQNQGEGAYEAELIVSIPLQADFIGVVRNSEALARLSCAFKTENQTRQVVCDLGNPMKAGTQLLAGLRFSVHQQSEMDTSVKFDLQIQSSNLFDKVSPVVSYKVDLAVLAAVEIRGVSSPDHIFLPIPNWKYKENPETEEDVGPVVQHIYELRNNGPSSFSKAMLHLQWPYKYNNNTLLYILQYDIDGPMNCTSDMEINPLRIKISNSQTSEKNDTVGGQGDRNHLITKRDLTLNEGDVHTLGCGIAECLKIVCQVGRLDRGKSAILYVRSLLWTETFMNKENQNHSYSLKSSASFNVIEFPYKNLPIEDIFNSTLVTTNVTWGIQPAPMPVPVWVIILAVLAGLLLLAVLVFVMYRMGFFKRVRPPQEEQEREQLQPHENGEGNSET

- recovery of Tum-2's anti-proliferative effect on C-PAE cells after pre-incubation with αvβ3 protein (methylene blue) [1]: 74.1%
Substance: Tum-2 (from UniProt Q01955 1427-1558) (ligand)

- % inhibition of cell attachment [2]: 47.5%
- % inhibition of cell binding [3]: 53%
- % inhibition of cell adhesion [4]: 40%
- % inhibition of cell attachment [5]: 54%
- % inhibition of cell adhesion [6]: 70%
Substance: mouse monoclonal antibody to the human β1 integrin subunit (clone P4C10)

- recovery of the Tum-4-induced anti-proliferative effect on WM-164 melanoma cells after pre-incubation with αvβ3 protein (methylene blue) [1]: 76.7%
Substance: Tum-4 (from UniProt Q01955 1607-1670) (ligand)

- % inhibition of cell attachment [7]: 47.1%
- % inhibition of cell attachment [8]: 91%
- % inhibition of cell attachment [9]: 55.9%
- % inhibition of cell attachment [10]: 62.6%
- % inhibition of cell binding [11]: 61%
- % inhibition of cell adhesion [12]: 15%
- % inhibition of cell attachment [13]: 69.8%
- % inhibition of cell attachment [14]: 80%
Substance: monoclonal antibody to αvβ3 integrin (clone LM609, CHEMICON)
